Data from patent publication US20190060394A1 (HONG KONG BAPTIST UNIVERSITY, published 2019).
Substitutions are numbered along the chain they refer to. Where no end group is shown, it is not given here. [ ]: non-standard residue; d: D form. Ahx = NCCCCCC(=O)O

Experiments:
[1] = molecular target: bovine serum albumin (BSA) (bovine) (UniProt P02769); assay: luminescence titration, selectivity assay
[2] = molecular target: T1, EBNA1 as present in the nucleus of EBV-positive cells (C666-1, NPC43, Raji) (Epstein-Barr virus, UniProt P03211 1-641); assay: cell-based or functional assay
T1 sequence: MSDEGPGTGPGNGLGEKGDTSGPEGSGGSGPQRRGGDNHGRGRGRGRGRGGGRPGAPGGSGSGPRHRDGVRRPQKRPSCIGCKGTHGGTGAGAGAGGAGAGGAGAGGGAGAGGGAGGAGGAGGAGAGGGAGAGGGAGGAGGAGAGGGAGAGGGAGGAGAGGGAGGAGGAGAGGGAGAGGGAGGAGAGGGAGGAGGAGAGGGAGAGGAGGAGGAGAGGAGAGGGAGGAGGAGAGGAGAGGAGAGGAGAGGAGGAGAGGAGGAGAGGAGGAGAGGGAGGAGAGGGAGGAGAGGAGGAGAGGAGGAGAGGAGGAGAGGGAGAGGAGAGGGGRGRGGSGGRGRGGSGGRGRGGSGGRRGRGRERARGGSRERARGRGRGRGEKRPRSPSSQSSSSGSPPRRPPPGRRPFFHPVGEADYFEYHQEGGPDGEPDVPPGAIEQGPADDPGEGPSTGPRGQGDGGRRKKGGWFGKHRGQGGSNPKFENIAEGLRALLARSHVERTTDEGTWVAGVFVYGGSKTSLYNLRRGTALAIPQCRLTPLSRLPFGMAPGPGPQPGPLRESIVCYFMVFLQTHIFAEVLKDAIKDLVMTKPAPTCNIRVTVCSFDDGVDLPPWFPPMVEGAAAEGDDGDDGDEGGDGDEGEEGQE

[3] = molecular target: T2, EBNA1-F565A (EBNA1 379-641 GST fusion with point mutation F565A) (Epstein-Barr virus, UniProt P03211 379-641); assay: luminescence titration, selectivity assay
T2 construct: Made by site-directed mutagenesis of the WT construct; not shown: glutathione S-transferase (GST) fusion partner
T2 sequence: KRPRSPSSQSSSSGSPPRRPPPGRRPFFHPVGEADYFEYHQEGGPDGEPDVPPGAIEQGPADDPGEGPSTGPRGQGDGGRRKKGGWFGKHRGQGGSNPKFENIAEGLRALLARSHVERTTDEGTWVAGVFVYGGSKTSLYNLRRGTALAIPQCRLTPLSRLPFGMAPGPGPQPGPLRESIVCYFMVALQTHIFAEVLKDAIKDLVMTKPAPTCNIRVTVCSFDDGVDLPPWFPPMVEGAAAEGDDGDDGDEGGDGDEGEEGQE

[4] = molecular target: T3, EBNA1-Y561A (EBNA1 379-641 GST fusion with point mutation Y561A) (Epstein-Barr virus, UniProt P03211 379-641); assay: luminescence titration, selectivity assay
T3 construct: Made by site-directed mutagenesis of the WT construct; not shown: glutathione S-transferase (GST) fusion partner
T3 sequence: T2 sequence with Y183A, A187F

[5] = molecular target: T4, EBNA1-3A (EBNA1 379-641 GST fusion with YFMVF mutated to FFAVA) (Epstein-Barr virus, UniProt P03211 379-641); assay: luminescence titration, selectivity assay
T4 construct: also called EBNA1-3A mutant; mutant EBNA1; not shown: glutathione S-transferase (GST) fusion partner
T4 sequence: T2 sequence with Y183F, M185A

[6] = molecular target: T5, EBNA1-M563A (EBNA1 379-641 GST fusion with point mutation M563A) (Epstein-Barr virus, UniProt P03211 379-641); assay: luminescence titration, selectivity assay
T5 construct: Made by site-directed mutagenesis of the WT construct; not shown: glutathione S-transferase (GST) fusion partner
T5 sequence: T2 sequence with M185A, A187F

[7] = molecular target: T6, Wild type EBNA1 protein (379-641 a.a.) fusing with glutathione S-transferase (Epstein-Barr virus, UniProt P03211 379-641); assay: luminescence titration in PBS, same conditions as L2P4
T6 construct: Expressed in E. coli (BL21), purified on glutathione sepharose; also called WT-EBNA1; WT EBNA1; not shown: glutathione S-transferase (GST) fusion partner
T6 sequence: T2 sequence with A187F

[8] = molecular target: T6, Wild type EBNA1 protein (379-641 a.a.) …; assay: luminescence titration in PBS, double logarithm regression
[9] = molecular target: T6, Wild type EBNA1 protein (379-641 a.a.) …; assay: luminescence titration in PBS buffer

Chain of bovine serum albumin (BSA) (bovine) (P02769 25-607 limits assumed): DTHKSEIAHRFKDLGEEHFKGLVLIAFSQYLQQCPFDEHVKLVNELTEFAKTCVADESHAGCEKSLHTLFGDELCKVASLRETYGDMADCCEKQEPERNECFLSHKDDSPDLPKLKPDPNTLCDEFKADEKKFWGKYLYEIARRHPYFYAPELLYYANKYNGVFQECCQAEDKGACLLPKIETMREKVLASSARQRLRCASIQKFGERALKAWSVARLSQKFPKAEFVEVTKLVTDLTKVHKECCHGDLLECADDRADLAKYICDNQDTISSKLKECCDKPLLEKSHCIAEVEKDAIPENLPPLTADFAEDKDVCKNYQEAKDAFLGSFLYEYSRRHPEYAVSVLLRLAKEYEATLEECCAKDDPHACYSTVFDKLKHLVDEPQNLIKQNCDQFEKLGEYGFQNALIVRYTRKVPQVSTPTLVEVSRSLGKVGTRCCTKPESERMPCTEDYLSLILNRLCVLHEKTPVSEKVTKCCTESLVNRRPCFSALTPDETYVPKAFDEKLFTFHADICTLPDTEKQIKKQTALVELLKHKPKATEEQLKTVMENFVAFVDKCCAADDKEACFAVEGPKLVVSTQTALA

L2P4 (peptide conjugate: L2, 4-(4-(diethylamino)styryl)-N-carboxymethylpyridinium, coupled through an amide bond to peptide P4, CAhxYFMVFGGRrRK)
log Kassoc [1]: 4.7 log Kassoc

B1: L2P4 (peptide conjugate: L2, 4-(4-(diethylamino)styryl)-N-carboxymethylpyridinium, coupled through an amide bond to peptide P4, CAhxYFMVFGGRrRK) (peptide)
peptide: CXYFMVFGGRXRK
modifications: L2 (4-(4-(diethylamino)styryl)-N-carboxymethylpyridinium) coupled to the peptide through an amide bond; Ahx = 6-aminohexanoic acid (position 2); r = D-arginine (position 11); synthesised on Rink amide resin
notes: Fluorescent dye-peptide conjugate; also called formula (I)
in vitro emission intensity in the nucleus of EBV-positive C666-1 cells (confocal microscopy), L2P4 against L2P3 [2]: 3 fold over L2P3
log Kassoc [3]: 4.3 log Kassoc
log Kassoc [4]: 5.1 log Kassoc
log Kassoc [5]: 3.9 log Kassoc
log Kassoc [6]: 3.6 log Kassoc

B2: L2P3 (peptide conjugate: L2 coupled to peptide P3, CAhxRrRKGGYFMVF) (peptide)
peptide: C[Ahx]R[dR]RKGGYFMVF-NH2
modifications: not fully specified (N-terminus); printed as CAhxRrRKGGYFMVF; also: L2 dye coupled to the peptide, site not given here
notes: Fluorescent dye-peptide conjugate
increase in emission intensity (fold) [7]: 4.7 fold
binding ratio [8]: 1 probe : WT-EBNA1

B3: L2P2 (peptide conjugate: L2 coupled to peptide P2, YFMVF) (peptide)
peptide: YFMVF-NH2
modifications: not fully specified (N-terminus); also: L2 dye coupled to the peptide, site not given here
notes: as for B2
binding result [9]: no binding
